Measurements reported in US20250084434A1 (KRIYA THERAPEUTICS, published 2025).

Molecular target: IGF-1R, endogenous, on cultured cells (HT-1080, Colo205, peripheral blood fibrocytes) (human, UniProt P08069 31-1367)
Experiment: cell-based or functional assay

Sequence of IGF-1R, endogenous, on cultured cells (HT-1080, Colo205, peripheral blood fibrocytes) (P08069 31-1367): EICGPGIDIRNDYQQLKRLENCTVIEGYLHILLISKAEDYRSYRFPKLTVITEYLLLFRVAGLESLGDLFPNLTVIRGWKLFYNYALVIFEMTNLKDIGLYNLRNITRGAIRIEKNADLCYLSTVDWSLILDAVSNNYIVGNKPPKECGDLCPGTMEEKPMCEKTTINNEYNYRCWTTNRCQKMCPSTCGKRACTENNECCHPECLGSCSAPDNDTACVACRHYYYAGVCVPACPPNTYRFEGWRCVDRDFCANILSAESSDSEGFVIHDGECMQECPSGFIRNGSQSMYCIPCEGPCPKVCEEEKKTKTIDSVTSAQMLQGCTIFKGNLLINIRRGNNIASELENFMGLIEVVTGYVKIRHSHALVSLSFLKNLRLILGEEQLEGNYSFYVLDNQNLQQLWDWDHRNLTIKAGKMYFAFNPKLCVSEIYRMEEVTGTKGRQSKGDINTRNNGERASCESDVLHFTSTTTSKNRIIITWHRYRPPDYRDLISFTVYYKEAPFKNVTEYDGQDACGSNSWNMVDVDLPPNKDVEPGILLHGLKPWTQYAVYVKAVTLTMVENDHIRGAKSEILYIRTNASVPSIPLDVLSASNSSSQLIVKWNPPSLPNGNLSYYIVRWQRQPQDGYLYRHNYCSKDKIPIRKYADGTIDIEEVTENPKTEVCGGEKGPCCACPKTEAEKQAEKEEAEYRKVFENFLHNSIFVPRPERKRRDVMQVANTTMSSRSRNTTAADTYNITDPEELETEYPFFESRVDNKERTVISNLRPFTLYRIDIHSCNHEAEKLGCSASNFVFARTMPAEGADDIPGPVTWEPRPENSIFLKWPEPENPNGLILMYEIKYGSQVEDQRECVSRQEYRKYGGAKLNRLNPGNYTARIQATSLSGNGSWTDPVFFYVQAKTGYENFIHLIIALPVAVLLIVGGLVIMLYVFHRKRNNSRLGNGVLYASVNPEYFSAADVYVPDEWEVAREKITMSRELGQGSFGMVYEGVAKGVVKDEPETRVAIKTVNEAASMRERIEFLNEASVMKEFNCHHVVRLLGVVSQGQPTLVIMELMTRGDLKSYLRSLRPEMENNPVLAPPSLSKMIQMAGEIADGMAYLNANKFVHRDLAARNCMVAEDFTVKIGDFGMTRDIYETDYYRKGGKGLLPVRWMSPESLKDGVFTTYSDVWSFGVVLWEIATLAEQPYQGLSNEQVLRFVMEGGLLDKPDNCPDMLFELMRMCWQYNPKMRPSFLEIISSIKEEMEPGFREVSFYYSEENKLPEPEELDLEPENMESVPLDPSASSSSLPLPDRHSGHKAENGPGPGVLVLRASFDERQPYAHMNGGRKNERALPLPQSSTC

B1: vectorized Teprotumumab (secreted from HEK-293 cells transfected with teprotumumab plasmid construct (antibody, V domains shown)
VH: QVELVESGGGVVQPGRSQRLSCAASGFTFSSYGMHWVRQAPGKGLEWVAIIWFDGSSTYYADSVRGRFTISRDNSKNTLYLQMNSLRAEDTAVYFCARELGRRYFDLWGRGTLVSVSS
VL: EIVLTQSPATLSLSPGERATLSCRASQSVSSYLAWYQQKPGQAPRLLIYDASKRATGIPARFSGSGSGTDFTLTISSLEPEDFAVYYCQQRSKWPPWTFGQGTKVESKR
In the case of B1, the “reduction in IGF-1R activation (IGF-1R phosphorylation) by IGF in HT-1080 cells, MSD Insulin Signaling Panel (Phospho Protein)” value is reported as 4 fold.
